B1: COV2-2514 (antibody, V domains shown)
VH: EVQLVESGGGVVRPGGSLRLSCAASGFIFDDYDMTWVRQAPGKGLEWVSGINWNGGSTGYADSVKGRFTISRDNAKNSLYLQMNSLRAEDTALYHCAVIMSPIPRYSGYDWAGDAFDIWGQGTMVTVSS
VL: SSELTQDPAVSVALGQTVRITCQGDSLRSYYASWYQQKPGQVPILVIYDKNNRPSGIPDRFSGSSSGNTASLTITGAQAEDEADYYCNSRDSSGNAVVFGGGTKLTVL
B2: COV2-2094 (antibody, V domains shown)
VH: B1 VH
VL: B1 VL
B3: COV2-3025 (antibody, V domains shown)
VH: EVQLVQSGPEVKKPGTSVKVSCKASGFTFMSSAVQWVRQARGQRLEWIGWIVIGSGNTNYAQKFQERVTITRDMSTSTAYMELSSLRSEDTAVYYCAAPYCSSISCNDGFDIWGQGTMVTVSS
VL: EIVLTQSPGTLSLSPGERVTLSCRASQSVSSSYLAWYQQKPGQAPRLLIYGASSRATGIPDRFSGSGSGTDFTLTISRLEPEDFAVYYCQHYGSSRGWTFGQGTKVEIK

Legend:
[1] = target: SARS-CoV-2 Spike trimer (Table A) (SARS-CoV-2, UniProt P0DTC2 14-1208); test: ELISA, purified IgG
[2] = target: T1, SARS-CoV-2 prefusion-stabilized trimeric spike ectodomain (S2Pecto) (SARS-CoV-2, UniProt P0DTC2 14-1213; P10104 458-484); test: ELISA on coated antigen
[3] = target: T1, SARS-CoV-2 prefusion-stabilized …; test: hACE2 blocking ELISA on coated S2Pecto; competitor hACE2

Binder | ELISA OD 450 nm [1] [OD 450 nm] | EC50 [2] [ng/mL] | IC50 [3] [µg/mL]
B1 | 3.56 | – | –
B2 | 4.3 | 1.8 | 0.053
B3 | 3.7 | 1.1 | 0.041

— patent US20210300999A1 (VANDERBILT UNIVERSITY, published 2021)
